Measured values reported in patent US20240209081A1 (GENOME, published 2024).

Tests used:
[1] = molecular target: T1, human CNTN4-10×His (human, UniProt Q8IWV2 19-1000); test: ELISA, plate coated with 20 nM antigen, HRP anti-human kappa detection
T1 construct: also called CNTN-4 protein
T1 sequence: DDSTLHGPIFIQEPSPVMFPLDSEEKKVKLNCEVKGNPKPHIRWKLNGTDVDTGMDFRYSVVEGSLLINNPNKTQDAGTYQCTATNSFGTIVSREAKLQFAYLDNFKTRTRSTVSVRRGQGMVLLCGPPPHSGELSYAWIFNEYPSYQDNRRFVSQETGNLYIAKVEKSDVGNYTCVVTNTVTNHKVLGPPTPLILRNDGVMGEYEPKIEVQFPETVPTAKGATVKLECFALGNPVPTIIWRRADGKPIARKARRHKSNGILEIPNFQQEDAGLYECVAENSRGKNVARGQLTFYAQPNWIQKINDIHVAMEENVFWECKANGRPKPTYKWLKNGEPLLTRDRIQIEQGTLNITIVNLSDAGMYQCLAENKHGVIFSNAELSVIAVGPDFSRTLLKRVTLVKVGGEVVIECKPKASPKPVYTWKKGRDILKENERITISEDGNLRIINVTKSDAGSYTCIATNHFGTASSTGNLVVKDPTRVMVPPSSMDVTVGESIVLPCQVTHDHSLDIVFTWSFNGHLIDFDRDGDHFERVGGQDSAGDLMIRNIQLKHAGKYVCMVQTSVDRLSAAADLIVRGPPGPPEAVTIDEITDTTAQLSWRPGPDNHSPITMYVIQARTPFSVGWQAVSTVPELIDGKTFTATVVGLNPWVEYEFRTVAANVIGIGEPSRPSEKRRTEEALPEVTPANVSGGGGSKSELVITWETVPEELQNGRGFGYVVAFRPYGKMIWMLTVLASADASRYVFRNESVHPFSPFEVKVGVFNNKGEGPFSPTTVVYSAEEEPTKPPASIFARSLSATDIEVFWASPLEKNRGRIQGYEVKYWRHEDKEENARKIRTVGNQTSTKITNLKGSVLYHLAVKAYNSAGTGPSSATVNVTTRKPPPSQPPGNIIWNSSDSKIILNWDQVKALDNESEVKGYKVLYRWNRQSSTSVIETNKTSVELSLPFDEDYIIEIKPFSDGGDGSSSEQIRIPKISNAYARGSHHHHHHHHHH
Protocol: (§1) ELISA test was performed on the monoclonal antibody hAb-1 prepared in Example 2. An ELISA plate was coated with 20 nM of antigens (human CNTN4-10×His or mouse CNTN4-10×His). For antibody binding, antibodies hAb-1 were serially diluted from a maximum of 1 μM to 0.0001 nM, thereby binding to the antigen. HRP conjugated anti-human kappa antibodies were used as a secondary antibody for antibody detection. Color was developed using ABTS, which is a color developing reagent, and the absorbance at 405 nm was measured.

[2] = molecular target: T2, mouse CNTN4-10×His (mouse, UniProt Q69Z26 19-1000); test: as above
T2 sequence: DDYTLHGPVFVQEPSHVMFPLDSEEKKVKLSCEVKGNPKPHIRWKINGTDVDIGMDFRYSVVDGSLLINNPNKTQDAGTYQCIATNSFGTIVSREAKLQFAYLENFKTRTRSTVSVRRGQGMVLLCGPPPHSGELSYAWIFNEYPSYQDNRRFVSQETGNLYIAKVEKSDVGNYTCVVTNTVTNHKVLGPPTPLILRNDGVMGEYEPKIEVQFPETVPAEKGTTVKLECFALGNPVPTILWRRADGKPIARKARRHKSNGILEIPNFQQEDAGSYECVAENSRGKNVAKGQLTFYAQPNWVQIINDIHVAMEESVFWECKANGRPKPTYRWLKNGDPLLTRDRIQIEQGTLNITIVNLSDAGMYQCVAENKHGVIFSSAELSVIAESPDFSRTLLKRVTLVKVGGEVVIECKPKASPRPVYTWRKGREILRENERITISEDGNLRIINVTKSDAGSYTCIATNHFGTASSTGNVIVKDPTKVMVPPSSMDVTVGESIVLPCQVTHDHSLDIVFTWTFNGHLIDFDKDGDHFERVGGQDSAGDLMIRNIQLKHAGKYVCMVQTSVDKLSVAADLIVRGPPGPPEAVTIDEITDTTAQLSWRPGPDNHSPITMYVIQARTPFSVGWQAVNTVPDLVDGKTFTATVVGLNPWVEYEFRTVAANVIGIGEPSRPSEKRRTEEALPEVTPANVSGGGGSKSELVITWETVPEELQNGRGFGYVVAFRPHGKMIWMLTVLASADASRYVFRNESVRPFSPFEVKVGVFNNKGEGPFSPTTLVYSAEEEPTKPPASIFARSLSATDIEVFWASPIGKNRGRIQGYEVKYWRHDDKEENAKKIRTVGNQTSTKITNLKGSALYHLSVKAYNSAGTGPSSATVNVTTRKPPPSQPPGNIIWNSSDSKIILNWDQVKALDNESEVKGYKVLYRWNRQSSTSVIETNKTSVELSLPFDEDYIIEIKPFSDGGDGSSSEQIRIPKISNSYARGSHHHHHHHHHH
Protocol: as §1

[3] = molecular target: T1, human CNTN4-10×His; test: ELISA on coated human CNTN4-10×His, competitor 500 nM CNTN4 receptor (APP) co-incubated
Protocol: (§2) An ELISA plate was coated with 20 nM of antigens human CNTN4-10×His. For antibody binding, a mixture of antibodies hAb-1 diluted to a final concentration of 0 to 1,000 nM and human CNTN4 receptors (Amyloid precursor protein, APP) diluted to 0 or 500 nM was bound to the antigens. HRP conjugated anti-human kappa antibodies were used as a secondary antibody for antibody detection. Color was developed using ABTS, which is a color developing reagent, and the absorbance at 405 nm was measured.

[4] = molecular target: T3, human CNTN4 recombinant protein (human, UniProt Q8IWV2 19-1000); test: SPR (CM5 chip), hAb-1 captured by anti-human IgG Fc, human CNTN4 400 nM to 0.78 nM as analyte
T3 construct: No tag is stated, so it is kept apart from human CNTN4-10×His, though it may be the same preparation; also called Human CNTN-4 protein
T3 sequence (looked up): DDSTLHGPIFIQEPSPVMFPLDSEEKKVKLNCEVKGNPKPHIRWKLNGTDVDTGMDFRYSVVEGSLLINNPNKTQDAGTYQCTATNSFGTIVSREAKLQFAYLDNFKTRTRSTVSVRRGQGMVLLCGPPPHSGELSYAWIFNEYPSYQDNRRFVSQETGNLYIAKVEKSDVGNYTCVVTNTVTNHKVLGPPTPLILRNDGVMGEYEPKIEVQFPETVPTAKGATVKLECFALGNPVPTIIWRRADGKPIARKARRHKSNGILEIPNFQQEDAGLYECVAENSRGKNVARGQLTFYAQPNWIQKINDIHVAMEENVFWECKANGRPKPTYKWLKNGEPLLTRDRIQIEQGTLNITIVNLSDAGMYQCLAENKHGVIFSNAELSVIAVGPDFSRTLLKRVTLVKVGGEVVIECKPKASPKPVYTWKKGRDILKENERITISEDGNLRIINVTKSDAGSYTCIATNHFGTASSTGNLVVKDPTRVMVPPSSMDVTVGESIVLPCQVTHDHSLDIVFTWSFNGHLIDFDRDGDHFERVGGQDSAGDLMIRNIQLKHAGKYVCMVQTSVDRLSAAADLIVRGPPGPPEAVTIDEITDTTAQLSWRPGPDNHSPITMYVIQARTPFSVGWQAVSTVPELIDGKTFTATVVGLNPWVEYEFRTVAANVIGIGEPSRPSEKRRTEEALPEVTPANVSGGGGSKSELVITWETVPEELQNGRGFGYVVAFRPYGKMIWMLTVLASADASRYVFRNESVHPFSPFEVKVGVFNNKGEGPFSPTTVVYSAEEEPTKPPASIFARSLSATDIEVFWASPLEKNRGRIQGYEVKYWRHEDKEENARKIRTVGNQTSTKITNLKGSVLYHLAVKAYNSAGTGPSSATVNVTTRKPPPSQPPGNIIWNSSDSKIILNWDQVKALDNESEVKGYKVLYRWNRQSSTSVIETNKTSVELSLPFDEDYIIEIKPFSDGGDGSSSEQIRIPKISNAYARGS
Protocol: SPR test was performed on the monoclonal antibody hAb-1 prepared in Example 2. More specifically, in order to bind anti-human IgG Fc (capture antibody) using amine coupling, CM5 chip was mounted, running buffer was allowed to flow, the chip was activated, and then capture antibody was attached thereto. […] to which capture antibody was not attached was deactivated using ethanolamine, and then regeneration was performed using 3M magnesium chloride to clear analytes except capture antibody. The hAb-1 prepared at a concentration of 0.05 μg/mL was allowed to flow for 30 seconds at a rate of 10 μL/min for binding. Thereafter, human CNTN4 (400 nM to 0.78 nM) prepared by sequential dilution as an antigen was allowed to flow at a rate of 30 μL/min for 3 minutes to be bound, and dissociation was performed for 5 minutes.
Then, in order to clear all analytes attached to the capture antibody, a regeneration solution (3M magnesium chloride) was allowed to flow at a rate of […] for 30 seconds, and regeneration was performed. For each concentration of antigen, binding of hAb-1, binding of antigen, dissociation, and regeneration were repeated in order.

[5] = molecular target: T1, human CNTN4-10×His; test: ELISA on coated human CNTN4-10×His, co-incubated with 0 nM CNTN4 receptor (APP); 0 nM CNTN-4 receptor (co-incubation)
Protocol: as §2

B1: anti-CNTN4 IgG4-S228P monoclonal antibody hAb-1 (antibody, V domains shown)
VH: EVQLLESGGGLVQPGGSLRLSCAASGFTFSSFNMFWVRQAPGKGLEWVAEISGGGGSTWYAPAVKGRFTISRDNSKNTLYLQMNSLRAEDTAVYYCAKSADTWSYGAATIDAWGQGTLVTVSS
VL: ELTQDPAVSVALGQTVRITCSGSSGSYGWYQQKPGQAPVLVIYDNTNRPSGIPDRFSGSSSGNTASLTITGAQAEDEADYYCGGYDGSTDVFGGGTKLTVL
[1]
  EC50: 0.17 nM
[2]
  EC50: 0.12 nM
[3]
  EC50: 0.24 nM
[4]
  Kd: 35.6 nM
[5]
  EC50: 0.17 nM
